Conditions: Escherichia coli (strain K12), pH 7, Urea, CD, Potassium phosphate 10 mM, reversible: yes (>95%)

Phosphocarrier protein HPr wild type, P0AA04
denaturant m value (0 °C): 1.29 kcal/mol/M
denaturant midpoint (higher = more stable) (0 °C): 4 M
unfolding free energy (0 °C): 4.63 kcal/mol
denaturant m value (5 °C): 1.18 kcal/mol/M
denaturant midpoint (higher = more stable) (5 °C): 4.38 M
unfolding free energy (5 °C): 5.08 kcal/mol
denaturant m value (10 °C): 1.36 kcal/mol/M
denaturant midpoint (higher = more stable) (10 °C): 4.58 M
unfolding free energy (10 °C): 5.31 kcal/mol
denaturant m value (25 °C): 1.19 kcal/mol/M
denaturant midpoint (higher = more stable) (25 °C): 4.58 M
unfolding free energy (25 °C): 5.31 kcal/mol
denaturant m value (30 °C): 1.14 kcal/mol/M
denaturant midpoint (higher = more stable) (30 °C): 4.32 M
unfolding free energy (30 °C): 5 kcal/mol
denaturant m value (35 °C): 1.01 kcal/mol/M
denaturant midpoint (higher = more stable) (35 °C): 4.04 M
unfolding free energy (35 °C): 4.68 kcal/mol
denaturant m value (40 °C): 1.06 kcal/mol/M
denaturant midpoint (higher = more stable) (40 °C): 3.58 M
unfolding free energy (40 °C): 4.14 kcal/mol
denaturant m value (45 °C): 1.01 kcal/mol/M
denaturant midpoint (higher = more stable) (45 °C): 2.9 M
unfolding free energy (45 °C): 3.37 kcal/mol
denaturant m value (50 °C): 1.11 kcal/mol/M
denaturant midpoint (higher = more stable) (50 °C): 2.09 M
unfolding free energy (50 °C): 2.42 kcal/mol

Source: FireProtDB (doi:10.1021/bi960863y)
